{
  "source": "paper PMC12245028",
  "molecular_target": "p65 (RELA, Transcription factor p65) (UniProt Q04206)",
  "assay": "anti-HA co-IP, p65 blot",
  "settings": "reference: HA-WEE1 wild type; sites S642",
  "data": [
    {"substance": "HA-WEE1 (from UniProt P30291) HA-WEE1 S642A", "values": [
      {"measurement": "binding against the reference", "result": "lost"}
    ]}
  ]
}
